Test results as given in PMC4873313.
Where two headings read alike, the source gives them in different places.

How the values were obtained:
[1] = target: aryl hydrocarbon receptor nuclear translocator PAS-B E362R, conjugated with Alexa-Fluor 488; assay: MST
[2] = target: aryl hydrocarbon receptor nuclear translocator PAS-B E362R; assay: ITC
[3] = target: aryl hydrocarbon receptor nuclear translocator PAS-B E362R, conjugated with Alexa-Fluor 488; assay: MST; remark: listed apart in the source
[4] = target: aryl hydrocarbon receptor nuclear translocator PAS-B E362R, conjugated with Alexa-Fluor 488; assay: MST; remark: listed apart in the source

Kd [1]: 170 nM
Kd [2]: 560 nM
dH [2]: 4.4 kcal/mol
Kd [3]: 820 nM
Kd [4]: 250 nM
Substance: HIF-2α PAS-B R247E (domain or fragment)
